Target: IL-27 receptor (on BL-2 cells) (human) (UniProt Q6UWB1)
Assay: cell-based or functional assay

IL-27 receptor (on BL-2 cells) (human), sequence (Q6UWB1 33-636, chain 1 of 2): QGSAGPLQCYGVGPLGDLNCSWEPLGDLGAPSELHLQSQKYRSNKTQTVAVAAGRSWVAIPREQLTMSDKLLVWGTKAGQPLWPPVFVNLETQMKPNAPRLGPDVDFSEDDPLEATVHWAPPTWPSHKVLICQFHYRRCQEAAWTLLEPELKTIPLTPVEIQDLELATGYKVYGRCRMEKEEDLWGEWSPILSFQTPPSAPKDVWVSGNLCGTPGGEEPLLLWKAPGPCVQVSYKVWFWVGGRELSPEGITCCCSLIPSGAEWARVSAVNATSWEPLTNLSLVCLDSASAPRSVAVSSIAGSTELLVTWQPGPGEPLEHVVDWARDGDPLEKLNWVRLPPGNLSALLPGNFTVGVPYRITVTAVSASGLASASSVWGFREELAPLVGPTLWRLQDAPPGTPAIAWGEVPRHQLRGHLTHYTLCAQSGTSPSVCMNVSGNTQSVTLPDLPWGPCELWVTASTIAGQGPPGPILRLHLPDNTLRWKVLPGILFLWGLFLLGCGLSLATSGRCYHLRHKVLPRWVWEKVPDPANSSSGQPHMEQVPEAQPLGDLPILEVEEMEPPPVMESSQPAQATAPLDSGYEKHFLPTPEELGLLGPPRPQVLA
IL-27 receptor (on BL-2 cells) (human), sequence (P40189 23-918, chain 2 of 2, further chain): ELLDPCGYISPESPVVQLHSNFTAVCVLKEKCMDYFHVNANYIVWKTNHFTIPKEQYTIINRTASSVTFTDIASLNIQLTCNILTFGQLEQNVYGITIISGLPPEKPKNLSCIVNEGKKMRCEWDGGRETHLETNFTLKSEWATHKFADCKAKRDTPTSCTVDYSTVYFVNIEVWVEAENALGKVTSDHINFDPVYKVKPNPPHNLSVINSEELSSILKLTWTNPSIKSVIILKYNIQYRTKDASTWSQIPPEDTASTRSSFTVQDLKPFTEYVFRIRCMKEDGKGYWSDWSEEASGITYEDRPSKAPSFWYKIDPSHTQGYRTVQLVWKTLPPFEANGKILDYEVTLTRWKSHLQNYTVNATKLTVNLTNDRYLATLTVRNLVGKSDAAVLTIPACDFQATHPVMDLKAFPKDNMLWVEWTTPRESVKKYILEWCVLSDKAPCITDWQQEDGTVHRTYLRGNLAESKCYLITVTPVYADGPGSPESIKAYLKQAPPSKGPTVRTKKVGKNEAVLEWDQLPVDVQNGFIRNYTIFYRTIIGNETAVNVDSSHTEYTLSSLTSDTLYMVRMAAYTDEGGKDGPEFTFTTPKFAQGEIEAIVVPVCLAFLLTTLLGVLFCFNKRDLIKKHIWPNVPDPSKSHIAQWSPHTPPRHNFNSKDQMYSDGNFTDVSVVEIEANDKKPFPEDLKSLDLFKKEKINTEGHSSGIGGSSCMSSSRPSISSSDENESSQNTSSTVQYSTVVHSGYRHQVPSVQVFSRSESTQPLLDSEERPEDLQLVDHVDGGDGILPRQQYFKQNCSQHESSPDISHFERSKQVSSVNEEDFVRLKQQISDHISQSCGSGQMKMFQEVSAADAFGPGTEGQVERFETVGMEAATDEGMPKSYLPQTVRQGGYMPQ

STAT1 activation (immunoblotting against phosphorylated STAT1), BL-2 cells, 60 minutes, 1000 ng/mL (fold over IL-27alpha^L162C): 8.5
Substance: IL-27alpha^L162C,T238A,S240A (mutein of the alpha-subunit of human Interleukin 27) (from UniProt Q8NEV9 29-243) (ligand)
